In patent US20230348858, “COMPOSITIONS AND METHODS FOR PROMOTING PROLIFERATION IN CARDIOMYOCYTES” (THE TRUSTEES OF INDIANA UNIVERSITY, published 2023):

Biological target: Brg1 helicase domain D1D2 (Mus musculus, UniProt Q3TKT4 SEQ:1-431)
Experiment: EMSA; 10 mM HEPES-KOH pH 7.3, 10 mM NaCl, 1 mM MgCl2, 1 mM DTT, tRNA carrier, room temp
Conditions: tags: MBP fusion; label: 5'-biotin
Procedure: Biotin-labelled RNA control probe: [0158] Biotin—5′[…]-3′ (SEQ ID NO 25); and Biotin-labelled RNA probe with m⁶A: [0159] Biotin—5′[…](m⁶A)[…]-3′ (SEQ ID NO 26); were synthesized by Gene Link (Orlando, Fla.). EMSA was performed by using the LightShift™ Chemiluminescent RNA EMSA Kit (Cat. 20158, Thermo Scientific). The labelled probe was incubated with appropriate amounts of recombinant proteins in 10 μl in the 1× binding buffer (10 mM HEPES-KOH, pH 7.3, 10 mM NaCl, 1 mM MgCl2, 1 mM DTT) with 5 μg tRNA carrier at room temperature for 30 min. The reactions were then loaded onto 1% 0.5× TBE agarose gel and transferred to Bright Star Plus positive charged membrane. The biotin-labelled probes were detected and quantified subsequently using Odyssey Infrared Imaging System. The shifted signals were quantified and plotted against amount of the MBP-D1D2 protein ((SEQ ID NO 27) coupled to (SEQ ID NO 2)) with GraphPad Prism (GraphPad). The software facilitates the fitting of nonlinear regression model and calculation of Kd values based on the fitting curve. The errors and r² values were also generated from the fitting curve.

Chain of Brg1 helicase domain D1D2 (Q3TKT4 774-1204): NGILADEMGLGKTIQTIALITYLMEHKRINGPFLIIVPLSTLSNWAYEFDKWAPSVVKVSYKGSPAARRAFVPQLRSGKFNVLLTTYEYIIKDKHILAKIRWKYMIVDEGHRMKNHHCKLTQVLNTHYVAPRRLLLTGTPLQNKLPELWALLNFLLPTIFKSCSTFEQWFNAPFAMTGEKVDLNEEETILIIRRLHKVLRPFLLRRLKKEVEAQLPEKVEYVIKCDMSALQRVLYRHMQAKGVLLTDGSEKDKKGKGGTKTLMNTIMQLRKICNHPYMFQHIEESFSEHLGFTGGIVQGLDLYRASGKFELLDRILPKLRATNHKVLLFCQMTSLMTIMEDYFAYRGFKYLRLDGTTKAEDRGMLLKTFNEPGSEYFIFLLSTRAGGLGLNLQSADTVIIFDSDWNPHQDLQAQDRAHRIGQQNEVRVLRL

Binder: UCGUCAUGGCUGAACUGCGGUUGUACACGCUGGUGCAGAGAGAUCGCAU (ssRNA, m6A at A25 (M2 adenosine)) [Bmp10 RNA probe with m6A (49 nt)]
- Kd: 176 nM
